Laboratory results: patent publication US6723833
Where two headings read alike, the source gives them in different places.

B1: MaE11 (antibody, mouse IgG1, V domains shown)
VH: DVQLQESGPGLVKPSQSLSLACSVTGYSITSGYSWNWIRQFPGNKLEWMGSITYDGSSNYNPSLKNRISVTRDTSQNQFFLKLNSATAEDTATYYCARGSHYFGHWHFAVWGAGTTVTVSS
VL: DIQLTQSPASLAVSLGQRATISCKASQSVDYDGDSYMNWYQQKPGQPPILLIYAASYLGSEIPARFSGSGSGTDFTLNIHPVEEEDAATFYCQQSHEDPYTFGAGTKLEIK

Experiments:
[1] = molecular target: human IgE bound to FcεRI (IgE-loaded FcεRI α-chain on CHO 3D10 cells) (human) (UniProt P01854); assay: FACS on IgE-loaded CHO 3D10 cells (FIG. 4)
Sequence of human IgE bound to FcεRI (IgE-loaded FcεRI α-chain on CHO 3D10 cells) (human) (P01854 whole entry, chain 1 of 2): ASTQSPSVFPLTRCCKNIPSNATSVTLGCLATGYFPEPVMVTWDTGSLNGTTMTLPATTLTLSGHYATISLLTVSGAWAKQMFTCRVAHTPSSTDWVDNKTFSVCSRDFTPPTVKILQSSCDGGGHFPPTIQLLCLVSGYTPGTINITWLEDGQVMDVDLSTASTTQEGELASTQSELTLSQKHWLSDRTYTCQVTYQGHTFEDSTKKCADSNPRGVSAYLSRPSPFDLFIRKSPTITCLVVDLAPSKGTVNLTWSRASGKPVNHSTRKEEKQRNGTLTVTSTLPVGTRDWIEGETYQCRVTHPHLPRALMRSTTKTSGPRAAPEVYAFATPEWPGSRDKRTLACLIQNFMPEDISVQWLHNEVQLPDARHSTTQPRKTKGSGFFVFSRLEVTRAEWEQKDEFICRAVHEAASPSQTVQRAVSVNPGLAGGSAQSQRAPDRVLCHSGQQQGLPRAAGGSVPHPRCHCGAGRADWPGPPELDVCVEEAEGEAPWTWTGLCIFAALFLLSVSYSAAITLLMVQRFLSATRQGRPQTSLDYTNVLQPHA
Sequence of human IgE bound to FcεRI (IgE-loaded FcεRI α-chain on CHO 3D10 cells) (human) (P12319 26-257, chain 2 of 2, further chain): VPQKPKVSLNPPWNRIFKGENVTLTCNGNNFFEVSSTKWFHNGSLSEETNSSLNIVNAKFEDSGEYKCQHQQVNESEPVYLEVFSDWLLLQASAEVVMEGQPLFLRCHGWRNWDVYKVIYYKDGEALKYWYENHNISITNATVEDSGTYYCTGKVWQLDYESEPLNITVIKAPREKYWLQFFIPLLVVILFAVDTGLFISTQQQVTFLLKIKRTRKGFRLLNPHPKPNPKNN

[2] = molecular target: human IgE bound to FcεRI (IgE-loaded FcεRI α-chain on CHO 3D10 cells) (human) (UniProt P01854); assay: FACS on IgE-loaded CHO 3D10 cells (FIG. 4); isotype control
[3] = molecular target: human IgE (affinity purified from U266B1 myeloma culture supernatant) (human) (UniProt P01854); assay: equilibrium binding of 125I-IgE, Scatchard analysis
Sequence of human IgE (affinity purified from U266B1 myeloma culture supernatant) (human) (P01854 whole entry, form in doubt, one chain of several): as the sequence (P01854 whole entry, chain 1 of 2) above

[4] = molecular target: membrane IgE on U266B1 cells (human) (UniProt P01854); assay: FACS on U266B1 cells (membrane IgE+)
Sequence of membrane IgE on U266B1 cells (human) (P01854 whole entry, one chain of several): as the sequence (P01854 whole entry, chain 1 of 2) above

[5] = molecular target: human IgE (affinity purified from U266B1 myeloma culture supernatant) (human) (UniProt P01854); assay: soluble receptor assay: inhibition of biotin-IgE binding to plate-coated FcεRI α-chain IgG chimera
[6] = molecular target: human IgE (affinity purified from U266B1 myeloma culture supernatant) (human) (UniProt P01854); assay: as above; remark: listed apart in the source
[7] = molecular target: human IgE bound to FcεRI (IgE-loaded FcεRI α-chain on CHO 3D10 cells) (human) (UniProt P01854); assay: cell-based or functional assay

Molecule | mean channel fluorescence at 0.1 µg/ml (mean channel fluorescence) [1] | nonspecific background binding [2] | Kd [3] | EC50 [4] | IC50 [5] | ratio Variant X/IgG1-2 [5] | ratio Variant X/MaE11 [5] | IC50 [6] | ratio F(ab)-X/F(ab)-2 [6] | ratio F(ab)-X/MaE11 [6] | PBL histamine release (EC50), IgE-loaded peripheral blood basophils [7]
MOPC21 (antibody) | 7.3 | 10% |  |  |  |  |  |  |  |  | 
B1 | 6.4 |  | 30 nM | 0.15 µg/mL | 0.449 µg/mL | 0.06 | 1 | 0.179 µg/mL | 0.03 | 1 | > 100 µg/mL
